Data from article PMC3017675 (Journal of molecular biology, 2010).

What was measured:
[1] = biological target: full-length Mycobacterium tuberculosis GroEL1 (M. tuberculosis H37Rv) (UniProt P9WPE9); assay: SEC
[2] = biological target: full-length M. tuberculosis GroEL2 (M. tuberculosis, UniProt P9WPE7 1-540); assay: peptide or protein array
Chain of full-length M. tuberculosis GroEL2 (P9WPE7 whole entry): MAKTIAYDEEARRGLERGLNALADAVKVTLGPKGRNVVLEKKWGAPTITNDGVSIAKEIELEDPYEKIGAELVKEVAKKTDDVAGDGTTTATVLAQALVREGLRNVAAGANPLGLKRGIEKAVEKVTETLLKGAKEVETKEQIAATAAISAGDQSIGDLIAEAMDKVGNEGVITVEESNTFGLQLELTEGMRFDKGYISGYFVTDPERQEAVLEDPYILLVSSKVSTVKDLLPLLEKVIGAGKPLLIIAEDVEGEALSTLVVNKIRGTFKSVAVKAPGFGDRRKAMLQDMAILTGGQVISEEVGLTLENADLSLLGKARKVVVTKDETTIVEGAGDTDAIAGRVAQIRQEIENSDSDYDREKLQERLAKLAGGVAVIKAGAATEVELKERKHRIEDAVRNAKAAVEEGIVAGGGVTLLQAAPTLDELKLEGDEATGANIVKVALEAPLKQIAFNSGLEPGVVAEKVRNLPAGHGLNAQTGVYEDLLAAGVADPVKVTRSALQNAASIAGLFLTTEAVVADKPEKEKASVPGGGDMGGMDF

Row | Molecule | stoichiometry N [1] | binding result [2]
1 | full-length Mycobacterium tuberculosis GroEL1 (from UniProt P9WPE9 1-539) (natural protein) | 2 | –
2 | AVGALESVLTVLTLRDGVIP [KasA peptides Group I (spots G20-G24)] | – | binds
3 | GGFPSVVVTAVTATTSIS [KasA peptides Group A (spots A05-A08)] | – | binds
4 | APAADGVRAGRAMTRSLELAGL [KasA peptides Group H (spots F12-F17)] | – | binds
5 | RGAKPLARLLGAGITSDA [KasA peptides Group G (spots F01-F04)] | – | binds
